Laboratory results as given in patent US20210292396A1.

Assays:
Experiment in all cases: cell-based or functional assay
[1] = molecular target: Env of HIV isolate DJ263.8 (clade AG) (HIV)
[2] = molecular target: Env of HIV isolate 001428-2.42 (clade C) (HIV)
[3] = molecular target: HIV Env of isolate 0013095-2.11 (HIV)
[4] = molecular target: Env of HIV isolate 96ZM651.02 (clade C) (HIV)
[5] = molecular target: Env of HIV isolate CNE57 (clade B) (HIV)
[6] = molecular target: Env of HIV isolate BL01.DG (clade B) (HIV)
[7] = molecular target: Env of HIV isolate CH181.12 (clade BC) (HIV)
[8] = molecular target: Env of HIV isolate MN.3 (clade B) (HIV)
[9] = molecular target: HIV Env of isolate CNE15 (HIV)
[10] = molecular target: Env of HIV isolate UG024.2 (clade D) (HIV)
[11] = molecular target: Env of HIV isolate 6631.v3.c10 (clade C) (HIV)
[12] = molecular target: HIV Env of isolate CAP45.G3 (HIV)
[13] = molecular target: Env of HIV isolate CNE58 (clade C in Table 7) (HIV)
[14] = molecular target: HIV Env of isolate 6322.v4.c1 (HIV)
[15] = molecular target: Env of HIV isolate 0260.v5.c36 (clade A) (HIV)
[16] = molecular target: Env of HIV isolate DU422.01 (clade C) (HIV)
[17] = molecular target: Env of HIV isolate 3817.v2.c59 (clade CD) (HIV)
[18] = molecular target: Env of HIV isolate CNE59 (clade AE) (HIV)
[19] = molecular target: Env of HIV isolate T33-7 (clade AG) (HIV)
[20] = molecular target: Env of HIV isolate Q259.17 (clade A) (HIV)
[21] = molecular target: Env of HIV isolate TRJO.58 (clade B) (HIV)
[22] = molecular target: Env of HIV isolate BG505.W6M.C2 (clade A) (HIV)
[23] = molecular target: Env of HIV isolate CAP210.E8 (clade C) (HIV)
[24] = molecular target: HIV Env of isolate CNE20 (HIV)
[25] = molecular target: Env of HIV isolate ZM135.10a (clade C) (HIV)
[26] = molecular target: Env of HIV isolate 6545.v4.c1 (clade AC) (HIV)
[27] = molecular target: HIV Env of isolate 0921.v2.c14 (HIV)
[28] = molecular target: Env of HIV isolate 620345.c1 (clade AE) (HIV)
[29] = molecular target: Env of HIV isolate 5768.04 (clade B) (HIV)
[30] = molecular target: Env of HIV isolate BR07.DG (clade B) (HIV)
[31] = molecular target: Env of HIV isolate 16936-2.21 (clade C) (HIV)
[32] = molecular target: Env of HIV isolate ZM176.66 (clade C) (HIV)
[33] = molecular target: Env of HIV isolate HO86.8 (clade B) (HIV)
[34] = molecular target: Env of HIV isolate CAP45.G3 (clade C) (HIV)
[35] = molecular target: 208-member cross-clade virus panel
[36] = molecular target: Env of HIV isolate 263-8 (clade AG) (HIV)
[37] = molecular target: HIV Env of isolate ZA012.29 (HIV)
[38] = molecular target: Env of HIV isolate Q23.17 (clade A) (HIV)
[39] = molecular target: HIV Env of isolate CAP256.206.C9 (HIV)
[40] = molecular target: Env of HIV isolate BR025.9 (clade C) (HIV)
[41] = molecular target: Env of HIV isolate BaL.26 (clade B) (HIV)
[42] = molecular target: Env of HIV isolate ZM109.4 (clade C) (HIV)
[43] = molecular target: Env of HIV isolate ZA012.29 (clade C) (HIV)

B1: ePGT121.18 (ePGT121.18.H1 VH and ePGT121.17.L1 VL) (antibody, V domains shown)
VH: QMQLQESGPGLVKPGETLSLTCSVSGASISSSYWSWLRETPGKGLEWIGYTHHSGDTNYAPSLKSRVHLGLHPSKNQVSLSLTSVTAADTAVYYCARTLHGRRIYGVVAFNEYYTYFYWPTWGKGTQVTVSS
VL: SDISVAPGETVRITCGGESIGSRAVQWYQHRPGQAPRLIIYNNQDRPPGIPERFSGSPDIDFGTTATLTISNVEAGDEATYYCHIWDSRRPTNWELGPGTTLTVL
IC50, pseudovirus neutralization [1]: 2 ng/mL
IC50, pseudovirus neutralization [2]: 1 ng/mL
IC80, pseudovirus neutralization (M1) [3]: 4210 ng/mL
IC80, pseudovirus neutralization (M2) [3]: 2160 ng/mL
IC50, pseudovirus neutralization [4]: 0.7 ng/mL
IC50, pseudovirus neutralization [5]: 2 ng/mL
IC50, pseudovirus neutralization [6]: 6910 ng/mL
IC50, pseudovirus neutralization [7]: 1 ng/mL
IC50, pseudovirus neutralization [8]: 2 ng/mL
IC80, pseudovirus neutralization (M1) [9]: 36400 ng/mL
IC80, pseudovirus neutralization (M2) [9]: > 50000 ng/mL
IC50, pseudovirus neutralization [10]: 2360 ng/mL
IC50, pseudovirus neutralization [11]: 10 ng/mL
IC80, pseudovirus neutralization (M1) [12]: 20600 ng/mL
IC80, pseudovirus neutralization (M2) [12]: 47500 ng/mL
IC50, pseudovirus neutralization [13]: 16 ng/mL
IC80, pseudovirus neutralization (M1) [14]: > 50000 ng/mL
IC80, pseudovirus neutralization (M2) [14]: > 50000 ng/mL
IC50, pseudovirus neutralization [15]: 2 ng/mL
IC50, pseudovirus neutralization [16]: 6 ng/mL
IC50, pseudovirus neutralization [17]: 546 ng/mL
IC50, pseudovirus neutralization [18]: > 50000 ng/mL
IC50, pseudovirus neutralization [19]: > 50000 ng/mL
IC50, pseudovirus neutralization [20]: > 50000 ng/mL
IC50, pseudovirus neutralization [21]: 3 ng/mL
IC50, pseudovirus neutralization [22]: 14 ng/mL
IC50, pseudovirus neutralization [23]: 20 ng/mL
IC80, pseudovirus neutralization (M1) [24]: 3 ng/mL
IC80, pseudovirus neutralization (M2) [24]: 4 ng/mL
IC50, pseudovirus neutralization [25]: 26 ng/mL
IC50, pseudovirus neutralization [26]: > 50000 ng/mL
IC80, pseudovirus neutralization (M1) [27]: 1030 ng/mL
IC80, pseudovirus neutralization (M2) [27]: 1490 ng/mL
IC50, pseudovirus neutralization [28]: > 50000 ng/mL
IC50, pseudovirus neutralization [29]: 4 ng/mL
IC50, pseudovirus neutralization [30]: 5 ng/mL
IC50, pseudovirus neutralization [31]: 2 ng/mL
IC50, pseudovirus neutralization [32]: 17 ng/mL
IC50, pseudovirus neutralization [33]: > 50000 ng/mL
IC50, pseudovirus neutralization [34]: 1740 ng/mL
% vs Neutralized, IC50 < 0.01 ug/ml [35]: 56%
% vs Neutralized, IC50 < 0.1 ug/ml [35]: 66%
% vs Neutralized, IC50 < 1.0 ug/ml [35]: 71%
% vs Neutralized, IC50 < 10 ug/ml [35]: 76%
% vs Neutralized, IC50 < 50 ug/ml [35]: 78%
% vs Neutralized, IC80 < 0.01 ug/ml (M1) [35]: 43.8%
% vs Neutralized, IC80 < 0.01 ug/ml (M2) [35]: 38.5%
% vs Neutralized, IC80 < 0.1 ug/ml (M1) [35]: 60.6%
% vs Neutralized, IC80 < 0.1 ug/ml (M2) [35]: 59.6%
% vs Neutralized, IC80 < 1.0 ug/ml (M1) [35]: 65.9%
% vs Neutralized, IC80 < 1.0 ug/ml (M2) [35]: 65.9%
% vs Neutralized, IC80 < 10 ug/ml (M1) [35]: 70.7%
% vs Neutralized, IC80 < 10 ug/ml (M2) [35]: 69.7%
% vs Neutralized, IC80 < 50 ug/ml (M1) [35]: 73.1%
% vs Neutralized, IC80 < 50 ug/ml (M2) [35]: 72.6%
Geometric Mean (IC50) [35]: 8.1 ng/mL
Geometric Mean IC80 (M1) [35]: 17.7 ng/mL
Geometric Mean IC80 (M2) [35]: 20.2 ng/mL
Median IC50 [35]: 3 ng/mL
Median IC80 (M1) [35]: 7 ng/mL
Median IC80 (M2) [35]: 8 ng/mL
Total VS Neutralized, IC50 < 0.01 ug/ml (viruses of 208) [35]: 116
Total VS Neutralized, IC50 < 0.1 ug/ml (viruses of 208) [35]: 137
Total VS Neutralized, IC50 < 1.0 ug/ml (viruses of 208) [35]: 148
Total VS Neutralized, IC50 < 10 ug/ml (viruses of 208) [35]: 159
Total VS Neutralized, IC50 < 50 ug/ml (viruses of 208) [35]: 162
Total VS Neutralized, IC80 < 0.01 ug/ml (M1) (viruses of 208) [35]: 91
Total VS Neutralized, IC80 < 0.01 ug/ml (M2) (viruses of 208) [35]: 80
Total VS Neutralized, IC80 < 0.1 ug/ml (M1) (viruses of 208) [35]: 126
Total VS Neutralized, IC80 < 0.1 ug/ml (M2) (viruses of 208) [35]: 124
Total VS Neutralized, IC80 < 1.0 ug/ml (M1) (viruses of 208) [35]: 137
Total VS Neutralized, IC80 < 1.0 ug/ml (M2) (viruses of 208) [35]: 137
Total VS Neutralized, IC80 < 10 ug/ml (M1) (viruses of 208) [35]: 147
Total VS Neutralized, IC80 < 10 ug/ml (M2) (viruses of 208) [35]: 145
Total VS Neutralized, IC80 < 50 ug/ml (M1) (viruses of 208) [35]: 152
Total VS Neutralized, IC80 < 50 ug/ml (M2) (viruses of 208) [35]: 151
IC50, pseudovirus neutralization [36]: 4 ng/mL
IC80, pseudovirus neutralization (M1) [37]: 6 ng/mL
IC80, pseudovirus neutralization (M2) [37]: 7 ng/mL
IC50, pseudovirus neutralization [38]: 2 ng/mL
IC80, pseudovirus neutralization (M1) [39]: 3 ng/mL
IC80, pseudovirus neutralization (M2) [39]: 4 ng/mL
IC50, pseudovirus neutralization [40]: 1 ng/mL
IC50, pseudovirus neutralization [41]: 2 ng/mL
IC50, pseudovirus neutralization [42]: 7260 ng/mL
IC50, pseudovirus neutralization [43]: 2 ng/mL

B2: ePGT121.15.H2.L1 (antibody, V domains shown)
VH: QMQLQESGPGLVKPGETLSLTCSVSGASISSSYWSWLRETPGKGLEWIGYTHHSGDTNYAPSLKSRVHLGLHPSKNQVSLSLTSVTAADTAVYYCARTLHGRRIYGVVAFNEWFTYFYWEVWGKGTQVTVSS
VL: SDISVAPGETVRISCGGESIGSRAVQWYQHRAGQAPKLIIYNNQDRPPGIPERFSGSPDIDFGTTATLTITNVEAGDEATYYCHIWDSRRPTNWVFGGGTTLTVL
neutralization (Table 6 value) [24]: 0.000538
